From publication PMC509409, “Recognition and Accommodation at the Androgen Receptor Coactivator Binding Interface” (PLoS Biology, 2004)

Assays:
Assay in all cases: SPR; Biacore 2000; biotinylated peptides (about 250 RU) held on streptavidin cells, AR LBD injected at 10 μM, 5 μM, 1 μM and 300 nM, 10 μl/min; HBS-P (10 mM HEPES pH 7.4, 150 mM NaCl, 0.005% Surfactant P20); SMRT2 peptide cell subtracted as background; two-state conformational change model, Kd calculated from rate constants
Details in all cases: both partners purified
[1] = target: T1, biotinylated LxxLL peptide (biotin tag attached through the additional C-terminal SGSGK)
T1 construct: also in PDB 1T7F; The SGSGK-biotin form is told for the FRET assay; source: synthetic peptide (Anaspec)

[2] = target: T2, biotinylated FxxLF peptide (biotin tag attached through the additional C-terminal SGSGK)
T2 construct: also in PDB 1T7R; The SGSGK-biotin form is told for the FRET assay; source: synthetic peptide (Anaspec)

[3] = target: T3, biotinylated FxxLW peptide (biotin tag attached through the additional C-terminal SGSGK)
T3 construct: also in PDB 1T79; The SGSGK-biotin form is told for the FRET assay; source: synthetic peptide (Anaspec)

B1: androgen receptor ligand-binding domain (AR LBD), DHT-bound (domain or fragment)
chain: GSPGISGGGGGSHIEGYECQPIFLNVLEAIEPGVVCAGHDNNQPDSFAALLSSLNELGERQLVHVVKWAKALPGFRNLHVDDQMAVIQYSWMGLMVFAMGWRSFTNVNSRMLYFAPDLVFNEYRMHKSRMYSQCVRMRHLSQEFGWLQITPQEFLCMKALLLFSIIPVDGLKNQKFFDELRMNYIKELDRIIACKRKNPTSCSRRFYQLTKLLDSVQPIARELHQFTFDLLIKSHMVSVDFPEMMAEIISVQVPKILSGKVKPIYFHTQ
Which Kd [1] does the source give for B1 here?
The Kd was 1800 nM.

And the Kd [2]?
Its Kd is 1100 nM.

What about the Kd [3] of the same binder?
Its Kd is 920 nM.
